According to PMC6445123 (Scientific Reports, 2019):
Where a chain is given by its changes, count along the chain named. Names may count otherwise. Marks after values point to notes of the source that are not given here. Blank lines part the entries; values can stand above or below the molecule they belong to.

What was measured:
[1] = molecular target: T1, recombinant active Casp6 (Casp6-WT) (Homo sapiens, UniProt P55212, INS179NQTEKLDTNITEVD); test: Fluorescence-based Ac-VEID-AFC cleavage assay (Casp6 activity, IC50 determination); format: biochemical; settings: for % Inhibition with 100 µM compound (fluorescence assay) / IC50: 10 µM Ac-VEID-AFC; for % Inhibition with 100 µM compound (fluorescence assay): 20 nM Casp6, relative to 1% DMSO control; for fold increase in IC50 (reduction in potency) compared to C13: Casp6-WT; for IC50: fluorescence assay, 20 nM Casp6 active sites, read-out: IC50
T1 construct: generating mainly large subunit with a linker (LS-L), small subunit (SS), and a minor amount of large subunit (LS); His (C); made in house; host or cells: E. coli BL21(DE3)pLysS
T1 sequence (P55212 24-193 limits assumed): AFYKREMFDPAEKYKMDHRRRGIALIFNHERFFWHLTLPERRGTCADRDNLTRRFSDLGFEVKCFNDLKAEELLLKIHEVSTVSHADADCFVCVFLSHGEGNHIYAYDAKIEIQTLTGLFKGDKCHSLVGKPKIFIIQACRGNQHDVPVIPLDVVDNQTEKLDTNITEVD
T1 sequence (P55212 194-293 limits assumed): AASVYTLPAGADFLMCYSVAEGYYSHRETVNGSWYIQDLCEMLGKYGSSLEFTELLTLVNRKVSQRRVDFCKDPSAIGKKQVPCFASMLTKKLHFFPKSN
Protocol: To assess the potency of in silico hits, a fluorescence-based Ac-VEID-AFC cleavage assay was used to measure recombinant active Casp6 reaction rate in the absence or presence of 100 µM concentration of compounds. A 30% inhibition cut off was arbitrarily chosen for further investigation of putative inhibitors. […] AFC signal interference by compound intrinsic fluorescence was ruled out (Fig. S4). Casp6 inhibition was confirmed for seven compounds (C7, C13, C14, S2, S10, S11 and S13) using a colorimetric Ac-VEID-pNA cleavage assay (Table 2, Fig. S3).
(§1) Casp6 active sites were quantified using zVAD-FMK (N-benzyloxycarbonyl-Val-Ala-Asp-(O-methyl)-fluoromethylketone, MP Biomedicals, Santa Ana, CA, USA)[51],[64]. Casp6 activity was measured in Stennicke’s buffer (SB: 20 mM piperazine-N,N′-bis-(2-ethanesulfonic acid) pH 7.2, 100 mM NaCl, 10 mM DTT, 1 mM EDTA, 0.1% 3-[(3-cholamidopropyl)-dimethylammonio]-2-hydroxy-1-propanesulfonic acid, 10% sucrose)[65] using 40 µM Ac-VEID-AFC (Ac-Val-Glu-Ile-Asp-7-Amino-4-trifluoromethylcoumarin, Enzo Life Sciences, Farmingdale, NY, USA)[64] and 10-250 nM active site titrated Casp6. Reactions were initiated by Ac-VEID-AFC addition and followed for 20 min at 37 °C in a black clear bottom 96-well microplate (Costar, Corning, NY, USA) in Synergy H4 Hybrid instrument (BioTek, Winooski, VT, USA) with excitation/emission at 380/505 nm. Released AFC was calculated from AFC standard curve (0-25 µM). Casp6 VEIDase activity (released pmol AFC/min) was calculated from the initial linear reaction part. Ac-VEID-AFC hydrolysis initial velocities were measured with 10 nM active-site titrated Casp6 and […] Ac-VEID-AFC. Initial velocities v versus substrate concentration [S] were fit to a rectangular hyperbola using Michaelis-Menten equation in GraphPad Prism 5 (GraphPad Software, La Jolla, CA, USA).
In fluorescence-based Casp6 activity assay, 10 µM Ac-VEID-AFC was added to 20 nM Casp6 in SB with 100 μM compound and 1% dimethyl sulfoxide (DMSO), and reaction rate was measured for 20 min at 37 °C as above. Compound potency was calculated by normalising Ac-VEID-AFC cleavage rate to 1% DMSO control. In colorimetric Casp6 activity assay, 200 µM Ac-VEID-pNA (N-acetyl-Val-Glu-Ile-Asp-p-nitroanilide, Enzo Life Sciences) was added to 200 nM Casp6 in SB with 100 μM compound, and Ac-VEID-pNA cleavage rate was measured at 37 °C for 30 min in clear 96-well plate (Sartstedt, Nümbrecht, Germany) using Synergy H4 plate reader at 405 nm. Absorbance was converted to the released pNA amount based on a standard curve of 0–250 µM pNA. Cleavage rates were calculated from the linear assay phase and were normalised to 1% DMSO control. In Casp6-C163A cleavage assay, 0.5 ng/µl Casp6-WT was preincubated with 100 µM inhibitor, 5 µM Q-VD-OPh or 1% DMSO in SB (30 min, RT), followed by transfer on ice, addition of 0.5 µg/µl Casp6-C163A, and incubation (37 °C, 5, 10 and 15 min). Reactions were stopped by adding SDS-PAGE sample buffer (62.5 mM Tris pH 6.8, 2% SDS, 0.1 M DTT, 0.01% Bromphenol Blue, 10% glycerol) and heating (5 min, 95 °C). Samples (2 µl) were analysed on 15% SDS-PAGE gels, proteins were stained with Coomassie blue, and gels were de-stained with 10% acetic acid. The intensities of protein bands were quantified from scanned gels using ImageJ. The band intensity of Casp6-C163A without a prodomain was plotted against the time and the Casp6-C163A cleavage rates were calculated from the slopes of linear plots. The % activity of Casp6-WT in the presence of inhibitors was calculated relative to DMSO control.
IC50 values were determined against 20 nM Casp6 active sites in fluorescence-based Casp6 activity assay with 10 µM Ac-VEID-AFC and 1 nM-500 µM inhibitor. IC50 was calculated with GraphPad Prism 5 by a nonlinear regression fit for log inhibitor vs relative Casp6 activity (% DMSO control) using a Hill slope of – 1, and top and bottom constraints of 100 and 0, respectively.

[2] = Ac-VEID-AFC hydrolysis kinetics of recombinant Casp6 variants (Michaelis-Menten); format: biochemical, human; settings: for Km / kcat: Ac-VEID-AFC hydrolysis, mean ± SD
Description: In this study, we investigated how naturally occurring rare missense variants of human CASP6 affect Casp6 activity and structure. […] A34, E35, A109, and T182 are not conserved in 12 human caspases and in Casp6 from different species (Fig. 1a,b). Recombinant Casp6-WT and the four variants were expressed in E. coli, purified, and active site titrated (Fig. S2) for functional analyses. Like Casp6-WT, Casp6 variants, underwent complete self-processing at TETD23, and TEVD193 sites, and slight self-cleavage at the DVVD179 site, generating mainly large subunit with a linker (LS-L), small subunit (SS), and a minor amount of large subunit (LS) (Fig. 1c,d).
as §1

potency against Casp6 (in words) [1]: low potency
% Inhibition with 100 µM compound (fluorescence assay) [1]: 2.3 ± 3.1^a %
Molecule: COC(=O)c1cc(CN)cc(NC(=O)c2ccco2)c1 [Compound C13B]

% Inhibition with 100 µM compound (fluorescence assay) [1]: 43.2 ± 10.9^a %
fold increase in IC50 (reduction in potency) compared to C13 [1]: 2 fold
IC50 [1]: 27 ± 1.6 µM
Molecule: COC(=O)c1cc(CNC(=O)C2(c3ccc(Cl)cc3)CCC2)cc(NC(=O)c2ccco2)c1 [Compound C13F]

potency against Casp6 (in words) [1]: low potency
% Inhibition with 100 µM compound (fluorescence assay) [1]: −8.3 ± 1.7^a %
Molecule: COC(=O)c1cc(CNC(=O)C(C)(C)C)cc(NC(=O)c2ccco2)c1 [Compound C13E]

% Inhibition with 100 µM compound (fluorescence assay) [1]: 55.5 ± 8.8^a %
fold increase in IC50 (reduction in potency) compared to C13 [1]: 2 fold
IC50 [1]: 21.5 ± 2 µM
potency for Casp6 of in-house synthesised compound compared to commercial compound ([1]; synthesised in the authors' laboratory vs commercial source): lower potency
Molecule: COC(=O)c1cc(CNC(=O)c2cc(C)cc(C)c2)cc(NC(=O)c2ccco2)c1 [Compound C13G]

% Inhibition with 100 µM compound (fluorescence assay) [1]: 5.5 ± 4.1^a %
fold increase in IC50 (reduction in potency) compared to C13 [1]: 155 fold
Molecule: COC(=O)c1cc(CNC(=O)c2c(-c3ccccc3)noc2C)cc(NC(=O)c2ccco2)c1 [Compound C13D]

B1: Casp6-E35K: recombinant rare natural human Casp6 missense variant E35K (protein)
chain 1: T1 sequence (P55212 24-193 limits assumed) with E12K
chain 2: T1 sequence (P55212 194-293 limits assumed)
modifications: left off: His (from the plasmid name pET23b-Casp6-His), end not stated, state not stated
fold reduced catalytic efficiency kcat/KM compared with Casp6-WT [2]: ~ 2 fold
Km [2]: 37.1 ± 4.9 µM
kcat [2]: 1.71 ± 0.13 s⁻¹

B2: Casp6-A109T: recombinant rare natural human Casp6 missense variant A109T (protein)
chain 1: T1 sequence (P55212 24-193 limits assumed) with A86T
chain 2: T1 sequence (P55212 194-293 limits assumed)
modifications: left off: His (from the plasmid name pET23b-Casp6-His), end not stated, state not stated
Km [2]: 34.5 ± 1.8 µM
kcat [2]: 2.51 ± 0.16 s⁻¹

B3: Casp6-L200A: Casp6 L200A alanine mutant from full-length construct, poorly self-processed (protein, UniProt P55212 1-293, looked up, variant L200A)
chain: MSSASGLRRGHPAGGEENMTETDAFYKREMFDPAEKYKMDHRRRGIALIFNHERFFWHLTLPERRGTCADRDNLTRRFSDLGFEVKCFNDLKAEELLLKIHEVSTVSHADADCFVCVFLSHGEGNHIYAYDAKIEIQTLTGLFKGDKCHSLVGKPKIFIIQACRGNQHDVPVIPLDVVDNQTEKLDTNITEVDAASVYTAPAGADFLMCYSVAEGYYSHRETVNGSWYIQDLCEMLGKYGSSLEFTELLTLVNRKVSQRRVDFCKDPSAIGKKQVPCFASMLTKKLHFFPKSN
modifications: full-length
notes: Casp6 L200A alanine mutant from full-length construct, poorly self-processed
fold higher KM compared to Casp6-WT or Casp6-WT-LS-SS [2]: 10 fold
fold reduction in kcat compared to Casp6-WT [2]: 45 fold
Km [2]: 316 ± 162 µM
kcat [2]: 0.05 ± 0.03 s⁻¹

B4: Casp6-K284A-LS-SS: fully processed Casp6 K284A from co-expression of large and small subunits (protein, UniProt P55212 1-293, looked up, variant K284A)
chain: B3 chain with A200L, K284A
Km [2]: 27.7 ± 2.7 µM
kcat [2]: 2.8 ± 0.2 s⁻¹

B5: Casp6-L200A-LS-SS: fully processed Casp6 L200A from co-expression of large and small subunits (protein, UniProt P55212 1-293, looked up, variant L200A)
chain: B3 chain
fold higher KM compared to Casp6-WT or Casp6-WT-LS-SS [2]: 8 fold
Km [2]: 196 ± 84.4 µM
kcat [2]: 2.8 ± 0.8 s⁻¹

B6: Casp6-WT: recombinant wild-type human Casp6 expressed in E. coli from full-length construct (protein, UniProt P55212 1-293, looked up)
chain: B3 chain with A200L
modifications: full-length
notes: recombinant wild-type human Casp6 expressed in E. coli from full-length construct
Km [2]: 31.2 ± 6.7 µM
kcat [2]: 2.27 ± 0.30 s⁻¹

B7: Casp6-A34E: recombinant rare natural human Casp6 missense variant A34E (protein, UniProt P55212 1-293, looked up, variant A34E)
chain: B3 chain with A34E, A200L
Km [2]: 22.7 ± 0.8 µM
kcat [2]: 2.04 ± 0.10 s⁻¹

B8: Casp6-T182S: recombinant rare natural human Casp6 missense variant T182S (protein, UniProt P55212 1-293, looked up, variant T182S)
chain: B3 chain with T182S, A200L
Km [2]: 33.3 ± 1.2 µM
kcat [2]: 2.42 ± 0.12 s⁻¹
